Data taken from paper PMC8595650, “Structure of the bacterial flagellar hook cap provides insights into a hook assembly mechanism” (Communications Biology, 2021).
Where “and” joins values, the source holds several entries; their conditions need not be identical. Identical values can stand only once.

Molecular target: the molecule itself
Test: cross-linking; purified FlgD with EDC and Sulfo-NHS (molar ratio 1 : 2000) or DTSSP (1 : 50), products on SDS-PAGE

B1: S. enterica FlgD (flagellar hook cap protein, 232 amino acid residues) (natural protein)
chain: MSIAVNMNDPTNTGVKTTTGSGSMTGSNAADLQSSFLTLLVAQLKNQDPTNPLQNNELTTQLAQISTVSGIEKLNTTLGAISGQIDNSQSLQATTLIGHGVMVPGTTILAGKGAEEGAVTSTTPFGVELQQPADKVTATITDKDGRVVRTLEIGELRAGVHTFTWDGKQTDGTTVPNGSYNIAITASNGGTQLVAQPLQFALVQGVTKGSNGNLLDLGTYGTTTLDEVRQII
notes: Separates on gel filtration into a pentamer and a monomer fraction; A seleno-methionine form (E. coli B834(DE3)) was used for phasing only; also called full-length FlgD; source: E. coli BL21(DE3)pLysS, purified (Q-Sepharose, Butyl-Sepharose, Superdex 200)
stoichiometry N: 5 and 10
